# Source: patent publication US20220017612A1 (TILOS THERAPEUTICS, published 2022)
# Changes are numbered by the printed parent chain. Names and notes keep the numbering of the source.
# B1: 22F9_mIgG2a (antibody, V domains shown)
# VH: QVQLQQPGAELVKPGASVKLSCKASGYTFTSYWMHWVKQRPGQGLEWIGMIHPNSGSTNYNEKFKSKATLTVDKSSSTAYMQLSSLTSEDSAVYYCAYYDYDGFFDVWGTGTTVTVSS
# VL: DIVLTQSPASLDVSLGQRATISCRASKSVSTSGYSYMHWYQQKSGQPPKLLIYLASNLESGVPARFSGSGSGTHFTLNIHPVEEEDAATYYCQHSRELPYTFGGGTKLEIK
# notes: also called 22F9_IgG2a
# B2: 22F9_Y98R (antibody, human IgG1, kappa, V domains shown)
# VH: B1 VH with Q5V, L11V, Q82E, T87R, S91T, Y98R, T110Q, T113L
# VL: DIQLTQSPSSLSASVGDRVTITCRASKSVSTSGYSYMHWYQQKPGKAPKLLIYLASNLESGVPSRFSGSGSGTDFTLTISSLQPEDFATYYCQHSRELPYTFGGGTKVEIKR
# notes: also called 22F9_H5L0 with VH Y98R
# B3: 20E6 H0.1 construct (antibody, human IgG1, kappa, V domains shown)
# VH: QVQLVQSGAEVKKPGASVKVSCKASGYTFTSYWMHWVRQAPGQGLEWMGRIDPNSGGIKYAQKFQGRATLTVDTSTSTAYMELSRLRSDDTAVYYCARWDYGGYFDVWGQGTLVTVSS
# VL: DIQMTQSPSSLSASVGDRVTITCRASQDITNYLNWYQQKPGKAVKLLIYYTSRLHSGVPSRFSGSGSGTDYTLTISSLQPEDFATYFCQQGDTLPWTFGQGTKLEIKR
# B4: 28G11_H0L3 (antibody, human IgG1, kappa, V domains shown)
# VH: EVQLVESGGGLVQPGGSLRLSCAASGFTFSDYYMSWVRQAPGKGLEWVGFIRNKPNGYTTEYSASVKGRFTISRDDSKNSLYLQMNSLKTEDTAVYYCARYTGGGYFDYWGQGTLVTVSS
# VL: B3 VL with V19L, T22S, T30S, A43T, F83V
# B5: 28G11_H2L0 (antibody, human IgG1, kappa, V domains shown)
# VH: B4 VH with S30T, V48L, D76N, K78Q, N79S, V116L
# VL: B3 VL with T30S, A43V, V44P, Y71F, F83V, F87Y
# B6: 7H4 (antibody, mouse IgG2b, kappa, V domains shown)
# VH: DVQLQESGPGLVKPSQSLSLTCSVTGYSITSGYYWNWIRQFPGNKLEWMGYISYDGTNNYNPSLKNRISITRDTSKHQFFLKLNSVTTEDTATYYCARSFYNNYFDFWGQGTTLTVSS
# VL: DIQMTQSPSSLSASLGGKVTITCKASQDIDKYIAWYQHKPGKGPRLLIHYTSTLQPGIPSRFSGSGSGRDYSFNISNLEPEDIATYYCLQYDNLRTFGGGTKLEIKR
# notes: also called 7H4 hyb; 7H4_(hyb)
# Assays:
# [1] = target: T1, LAP-TGFβ1 on U937 cells (Homo sapiens, UniProt P01137); test: flow cytometry dot plot against GARP, U937 cells, Alexa 647 antibody at 10 ug/ml
# T1 construct: cell surface, endogenous; also called LAP+ U937 cells
# Protocol: (§1) Anti-LAP antibodies were tested for their ability to bind to U937 cells, a myeloid cell line derived from a patient with histiocytic lymphoma. U937 cells were incubated with FACS buffer and human Fc block followed by incubation with varying concentrations of Alexa 647 conjugated 28G11_hyb, 22F9_mIgG2a, or 20E6_mIgG2a. In a separate experiment U937 cells were incubated with FACS buffer and human Fc block followed by incubation with 10 ug/ml of Alexa 647 conjugated 28G11_hyb, 22F9_mIgG2a, 20E6_mIgG2a or mIgG2a isotype control (FIGS. 10E and 10F). Representative dot plots are shown in FIG. 10G; in these plots, antibodies were at 10 ug/ml.
# [2] = target: T1, LAP-TGFβ1 on U937 cells; test: flow cytometry, U937 cells, Alexa 647 antibody, % LAP+ cells
# Protocol: as §1
# [3] = target: T2, human LAP-TGFβ1 overexpressed on cells (human, UniProt P01137 30-390); test: cell-based or functional assay
# [4] = target: murine LAP-TGFβ1 overexpressed on cells (mouse, UniProt P04202 30-390); test: cell-based or functional assay
# [5] = target: T2, human LAP-TGFβ1 overexpressed on cells; test: flow cytometry; black bar HT1080-huB1, grey bar HT1080
# [6] = target: T2, human LAP-TGFβ1 overexpressed on cells; test: flow cytometry; black bar HT1080-huB1, grey bar HT1080-null
# [7] = target: T3, human GARP and human LAP-TGFβ1 co-expressed on P3U1 cells (human, UniProt Q14392 20-662); test: flow cytometry competition with biotin-28G11 (0.31 µg) on P3U1 cells with human GARP and LAP-TGFβ1
# T3 construct: whole, on cells; also called P3U1 cells over-expressing human GARP and LAP-TGFβ1
# Protocol: In the first experiment, the various humanized 28G11 candidates were tested for retention of binding to human LAP-TGFβ1 by competition with biotin-28G11 in a flow cytometry assay.
# P3U1 cells over-expressing human GARP and LAP-TGFβ1 were placed in a round-bottom 96-well plate at density of 40,000 cells/well. The cells were washed with FACS buffer (25 mM HEPES, 2 mM EDTA, 2% fetal bovine serum in Hank's Balanced Salt Solution). 50 μL of 1:200 diluted TruStain Mouse FcX (BioLegend) was added to each well, followed by 50 μL of 100 ng/μL of humanized 28G11 construct (H0L0, H0L1, H0L2, H0L3, HILO, H1L1, H1L2, H1L3, H2L0, H2L1, H2L2, H2L3). The antibody was allowed to bind for 10 minutes. 50 μL of 6.2 ng/μL of biotinylated murine hybridoma 28G11_(hyb) was added to each well. The biotinylated antibody was allowed to bind for 10 minutes, and then the cells were washed twice with FACS buffer. The cells were labeled for 15 minutes with allophytocyanin-streptavidin (BioLegend), washed twice with FACS buffer, and analyzed by flow cytometry.
# [8] = target: T4, LAP-TGFβ1 on THP-1 cells (Homo sapiens, UniProt P01137); test: flow cytometry, THP-1 cells, % positive cells
# T4 construct: cell surface, endogenous; also called LAP+ THP-1 cells
# Protocol: Anti-LAP antibodies were tested for their ability to bind to THP-1 cells, a cell line derived from a patient with acute monocytic leukemia that is reported to express LRRC33. THP-1 cells were incubated with FACS buffer and human Fc block followed by incubation with varying concentrations of Alexa 647 conjugated 28G11_(hyb), 22F9_mIgG2a, 20E6_mIgG2a, 17G8_hIgG1, 24E3_hIgG1, 2C9_mIgG2a, or mIgG2a isotype control. Cells were analyzed by flow cytometry and graphed as percent positive THP-1 cells or median fluorescent intensity (MFI) of anti-LAP binding. As shown in FIGS. 10A and 10B, antibodies 22F9, 17G8, 24E3, 20E6, and 2C9 display strong binding to THP-1 cells. […] In another experiment, the binding of 20E6 mIgG2a and 7H4 hyb to THP-1 cells was compared using the methods described above. […] In a separate experiment THP-1 cells were incubated with FACS buffer and human Fc block followed by incubation with 5 ug/ml of Alexa 647 conjugated 28G11_hyb, 22F9_mIgG2a, 20E6_mIgG2a, 2C9_mIgG2a, or IgG2a isotype control. Cells were analyzed by flow cytometry and gated as single cells. Representative dot plots are shown in FIG. 10D; in these plots, antibodies were at 5 ug/ml.
# T1 sequence (P01137 30-390 limits assumed): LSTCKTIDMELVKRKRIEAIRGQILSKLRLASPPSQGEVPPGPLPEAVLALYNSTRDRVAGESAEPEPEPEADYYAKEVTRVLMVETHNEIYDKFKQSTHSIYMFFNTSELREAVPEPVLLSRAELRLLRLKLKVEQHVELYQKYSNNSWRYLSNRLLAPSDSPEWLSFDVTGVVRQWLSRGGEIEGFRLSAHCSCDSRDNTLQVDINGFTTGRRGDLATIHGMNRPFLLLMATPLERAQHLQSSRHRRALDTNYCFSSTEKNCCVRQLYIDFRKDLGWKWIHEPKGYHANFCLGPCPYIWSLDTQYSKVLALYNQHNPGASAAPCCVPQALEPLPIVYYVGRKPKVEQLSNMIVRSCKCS
# T2 sequence (P01137 30-390): as the sequence (P01137 30-390 limits assumed) above
# T3 sequence (chain, as listed by the source, chain 1 of 2): as the sequence (P01137 30-390 limits assumed) above
# T3 sequence (Q14392 20-662, chain 2 of 2): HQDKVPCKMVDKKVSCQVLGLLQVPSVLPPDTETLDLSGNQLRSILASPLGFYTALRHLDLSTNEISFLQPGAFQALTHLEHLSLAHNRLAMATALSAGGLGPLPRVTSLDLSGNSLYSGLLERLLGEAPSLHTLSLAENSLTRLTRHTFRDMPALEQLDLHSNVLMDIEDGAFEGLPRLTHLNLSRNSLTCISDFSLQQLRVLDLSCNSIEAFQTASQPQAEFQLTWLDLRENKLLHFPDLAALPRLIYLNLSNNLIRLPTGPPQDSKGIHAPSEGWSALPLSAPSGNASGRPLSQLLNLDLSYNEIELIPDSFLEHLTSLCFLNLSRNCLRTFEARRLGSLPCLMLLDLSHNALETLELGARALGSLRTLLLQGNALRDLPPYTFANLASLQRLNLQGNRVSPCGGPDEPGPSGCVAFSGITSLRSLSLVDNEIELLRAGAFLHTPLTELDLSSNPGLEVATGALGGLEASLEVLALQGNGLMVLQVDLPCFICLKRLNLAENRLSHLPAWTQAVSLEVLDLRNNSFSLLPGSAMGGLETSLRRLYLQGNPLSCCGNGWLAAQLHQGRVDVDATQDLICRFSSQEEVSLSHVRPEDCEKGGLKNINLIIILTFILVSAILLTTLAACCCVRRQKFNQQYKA
# T4 sequence (P01137 30-390 limits assumed): as the sequence (P01137 30-390 limits assumed) above
# murine LAP-TGFβ1 overexpressed on cells, sequence (P04202 30-390): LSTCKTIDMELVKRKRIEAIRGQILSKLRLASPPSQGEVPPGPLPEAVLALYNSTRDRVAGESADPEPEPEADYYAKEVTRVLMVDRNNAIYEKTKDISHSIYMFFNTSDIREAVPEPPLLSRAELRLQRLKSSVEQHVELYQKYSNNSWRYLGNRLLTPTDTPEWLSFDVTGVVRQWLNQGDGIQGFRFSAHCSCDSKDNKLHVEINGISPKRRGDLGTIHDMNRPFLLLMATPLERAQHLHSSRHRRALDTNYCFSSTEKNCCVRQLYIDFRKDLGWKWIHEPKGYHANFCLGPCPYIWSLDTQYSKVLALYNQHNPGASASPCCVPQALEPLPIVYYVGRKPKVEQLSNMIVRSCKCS
binder,measurement,setting,value
B1,"% of cells in Q1 (antibody axis positive, GARP negative)",[1],43.8%
same,"% of cells in Q2 (antibody axis positive, GARP positive)",[1],0.44%
same,EC50 (read off the curve),[2],~20 µg/mL
same,IC50 of inhibition of TGFβ1 activation,[3],1.8 µg/mL
same,IC50 of inhibition of TGFβ1 activation,[4],1 µg/mL
B2,binding result,[5],binds
B3,binding result,[6],binds
B4,binding result,[7],no binding (tested: 5 µg competitor)
B5,binding result,[7],no binding (tested: 5 µg competitor)
B6,binding result,[8],no binding (tested: 100 ug/ml)
